Key:
[1] = molecular target: Flag-hAPRIL (human); experiment: SEC; Superdex S200 Increase HR 10/30, PBS 10 ug/ml BSA, 0.7 ml/min; proteins alone or Flag-ligand with a 20-fold mass excess of atacicept; fractions analysed by Western blot; complexes of fractions 10 and 11 concentrated and run again
[2] = molecular target: endogenous BAFF (human serum) (human (endogenous in serum)); experiment: SEC; 300 ul serum of an atacicept-treated SLE patient (pre-dose, 4 weeks of treatment, 12 weeks after treatment end) fractionated in PBS; BAFF ELISA and non-reducing anti-TACI Western blot of the fractions

Substance	stoichiometry N [1]	stoichiometry N [2]
Flag-hAPRIL (ligand)	3	–
endogenous BAFF (human serum) (ligand)	–	3
